Assay results from the DeepSol protein solubility set.

Assay: soluble on expression in E. coli; label from the status in PepcDB or PDB records

| Sequence | soluble on expression in E. coli |
| --- | --- |
| AAIYHLDVSGQATIRFRPPAFLKTLVSEHAGTTRLNTLSMIHHDDRHMLSNAYSKLREAKHSLTLVYRIVTPEGKLHWIEDHMRSSFSDD | not soluble |
| MSLRPPQTLSRGWGDDITWVQTYEEGLFYAQKSKKPLMVIHHLEDCQYSQALKKVFAQNEEIQEMAQNKFIMLNLMHETTDKNLSPDGQYVPRIMFVDPSLTVRADIAGRYSNRLYTYEPRDLPLLIENMKKALRLIQSELEGHHHHHH | soluble |
| MSLGNKSEAYEQYIQQIKEENGINNFFDRYPYLLKQINREVRLIEESYSLLFDRFLKDLSELRSCFNITEPLSNVEFSLGDSHSQKQTVVKIEFKGKSIYYKPKSYDSYNILLELISLLKSNNIPSFSLPESLIKADYCWQLGVDYINSNNDEVKRIYFKYGVLAAFSEIFSITDLHMENVIVSGGDLYLIDVETFFQRKLNVQTNNFEGITVDTYQRIYETSLSNGLFPVQFEKNSAPNISGISGKGGKRKKGKYELINKNRGDMKLVKTDYFQEDSYNIPTLNEKMVEPLDYANEVIAGFRECYTFLMTQRAKVKKILYGFPKLRTRAIFRNTSDYGKFLQASTNPKYLFSEKKRENLFSILYESKHIEQFIVDSEIKDLMNGDIPYFSMDPNGNVYNSLGTVIGNLGKTTSLFDNIATLNDERMKFTCELIGIVLKKPIKHWERKDGKSYYFPSISSKQSFNEEILRQREGHHHHHH | not soluble |
| MGSDKIHHHHHHMLDPAGARVQIAKGRRDAADEPEDEDQMTRLEAFGDRKFPAAELILSSEGRGWDGIGTQVRRHPAGEIPVPVPDQMEVTLAIAGSQTGRVERRSGSAFQNTTARPGTLWFCPIGVTEDSIRITETLPMVQHVFLAKSQFDSLSELSSRSLSPASIAYLADVNDELVRQICQRIYREAQEETSSGKILIDCLAQSLVAHLVSDYSHDSRIHLGPDSGPSKLDDARLRRVLDYIYGNIDQDLSLSKLSEVACLSKHHFARAFREATGTPPYRFISERRLDHALNLLKDSRLSLAEIAYICRFSSQATFTRAFRRHVGTSPGEYRHLSRT | not soluble |
| MSVKKLENGQYQVDVSFGFDPITGERIRTRPVASTRKEALELEAKLRREFQEERARKSRSVSFPTLISIYLASCEIDSKPNYYQNQKYIINKHISDYFLKSDIQKITHREITDFRKHLMETGLSNKSVNNIMTSLSKIFDTAVHEEILKRNPCDNVKRLPLTRKKMKFWRPEEFKKFISLIPQDQLLFKTFYTVAFLTGLRCGEMLALQWKDIDKILLEIDVHKSCTWLDGQFVVTTPKTKNSIRRVSINKKLLKLLERWKEAQEELFNELGIRHSHDTYIFQYKDTPSRKDIFSRKIKYFCKDSDLTPIRLHDFRHSHVALLIHQGEDYITIKERLGHGSVKTTIDVYGHLYPNKQKEMADKLDDLL | not soluble |
| MSLKNIVFDIGNVLLKFTPVEFLKSKYKDDKLVEALYENVFKSNEWVELDRGTITEEEATCRFCKRDPHNAKYIREVMETWNEMHVPVEGTSELMKELREKGYKIYLLSNYHLKAFKLISDKYDFIRDVDGGIISSKVKLLKPELEIYKALTNSCGIKPEESIFIDDREENVEAAIKLGFNGIVFKDAYELKGKFDELGIAIEGHHHHHH | soluble |
| MRWKKINITINNVEMILVAAIIIDVPPVVDLCVKTMIHNINSTNCIRMFNFSKRYGIKKLYNASMSEIINNITAVTSDPEFGKLSKDELTTILSHENVNVNHEDVTL | not soluble |
| STAGKVIKCKAAVLWEEKKPFSIEEVEVAPPKAHEVRIKMVATGICRSDDHVVSGTLVTPLPVIAGHEAAGIVESIGEGVTTVRPGDKVIPLWTPQCGKCRVCKHPEGNFCLKNDLSMPRGTMQDGTSRFTCRGKPIHHFLGTSTFSQYTVVDEISVAKIDAASPLEKVCLIGCGFSTGYGSAVKVAKVTQGSTCAVFGLGGAGLSVIMGCKAAGAARIIGVDINKDKFAKAKEVGATECVNPQDYKKPIQEVLTEMSNGGVDFSFEVIGRLDTMVTALSCCQEAYGVSVIVGVPPDSQNLSMNPMLLLSGRTWKGAIFGGFKSKDSVPKLVADFMAKKFALDPLITHVLPFEKINEGFDLLRSGESIRTILTF | soluble |
| MEKRKHFTPEQKAKIVIEVIKGERTLNEIAAEYGIHPNLLSRWKTEFISNAGRVFSKETDEVEKVKQSYEKEKDELLKQIGQLSYEVAWLKKKSGLL | not soluble |
| MKLSPSMLDKLLRLGYSKLFADRYFQLWGERAIRIAEAMEKPLPRCFRVNTLKISVQDLVKRLNKKGFQFKRVPWAKEGFCLTREPFSITSTPEFLTGLIYIQEASSMYPPVALDPKPGEIVADMAAAPGGKTSYLAQLMRNDGVIYAFDVDENRLRETRLNLSRLGVLNVILFHSSSLHIGELNVEFDKILLDAPCTGSGTIHKNPERKWNRTMDDIKFCQGLQMRLLEKGLEVLKPGGILVYSTCSLEPEENEFVIQWALDNFDVELLPLKYGEPALTNPFGIELSEEIKNARRLYPDVHETSGFFIAKIRKL | soluble |
| MTVAQLIDIDAKKTKTSNEVYQTSTMLALLDGIYDGVISFEDLKKHGDFGIGTFDQLDGEMIAFDNEFYHLRSDGSAEKVEPEETTPFATVTFFEKEMSYTVERPMNREEVEALLHELMPSKNLFYGIRMDGTFREVRTRTVPRQEKPYTPLVEVTKSQPIFSFENTEGTLAGFWTPDYAQGIGVAGFHLHYIDDERSGGGHVFDYVIENCTIQICQKAHMHLALPETADFMAAALSRENLEDNIATAEGAE | not soluble |
| MEIGDVSTGYLEDALIEFSGRSKRRRLSFNGAEDKPDNDLDHSQNHWGLSENYSCTSSQFAEKNDYDEKKRVVYPFGVVKPGGREEDITLNDINKRILMPSARPVRHPVGDFACRPCVSADGPGLSGKAVVAFTKIQTLGRGTITIIRTKG | soluble |
| MGHHHHHHSHKRVVLKLSGEALAGEKGFGINPVIIKSVAEQVAEVAKMDCEIAVIVGGGNIWRGKTGSDLGMDRGTADYMGMLATVMNALALQDSLEQLDCDTRVLTSIEMKQVAEPYIRRRAIRHLEKKRVVIFAAGIGNPYFSTDTTAALRAAEVEADVILMGKNNVDGVYSADPKVNKDAVKYEHLTHIQMLQEGLQVMDSTASSFCMDNNIPLTVFS | not soluble |
| PKPLKNLDGQFCEICGDQIGLTVEGDLFVACNECGFPACRPCYEYERREGTQNCPQCKTRYKRLRGSPRVEGDEDEEDID | soluble |
| MAPEDGSLDRWQWYPKEKGEYSALYPRSWYEYKDVFKSELICEQFSPVWGGNYQESSYPLAVFDWTVHNPTDKPITLSIMLTWQNSVGWFTNAIKSPTVKLRDDGSPEYEYQPRWGDSTGNFNQWIQDGFRVGCLFNRVQPHEALREGEGQMCIASVSNPSVEVFYHNRWNPSGDGADVWDWFAGNGSLPDIQDETAAEPGEQIAGAICLRFTVRPGKTKKIPFLLAWDLPITEFAQGVTYYRRYTDFYGRNGKNVWSMIRTALKHSDTWRKKIEAWQAPILENPRLPDWLKMSLFNELYLLTQGGTLWTAATENDPVGQFGVCECMDYRWYESLDVRLYGSFGLLMHWPKLEQAVMLAFARAIPTEDPKERVIGYNLSLAPRKVKNATPHDLGAPNEHPWERSNYTAYQDCNLWKDLGSDFVLLVYRDFLLLPDADGEFLGECWPSIVAALDYLKGFDLDNDGIPENSGAPDQTFDDWRLQGISAYCGGLWIAALEAALVMGQYLLENPPQQTDLDAMEIQTAIARYETWLAQARSLYQDTLWNGEYYNLDSQSGSKVVMADQLCGQFYARLLNLPDVVEHHYAEKALAKVYDTCFLKFAHGELGAANGLLPDGSPQNPNDTHPLEVWTGINFGLAAFLIQMGMKEEALKMTETVVNQVYNNGLQFRTPEAITAVGTFRASHYLRAMAIWAVYGLLEGFSNLPIAPADDEVPTSDFYLEHHHHHH | not soluble |
| MGSDKIHHHHHHMLDVVANQDKSIVVKQLRYGRDNEVLVVDEWQLHPAEHWAIFATDSYCGSLLGRILTGDIQPDEGTIAGLPQRIGWVSLGLQQVLLERELEKDELDYGSSVEFLVLECCQDAAQLAPLLQKVGLEPLRLRGFRQLSTGETRRVMLARALAMLPQLLILDDPYAGLDVEHQASLSELLSEVAEHTQLLIITSRQEELPPCISHVALFNGEMLKSGQSVHKLSQPMSIEQWHNHPVMAQLNALSAQRSNELLALMERQRHNAEAFDPLVEIKNGKVEYVSGLIFSGVNWRIEAGQHWQVRGPNGCGKSTLLGLILGDHPQCYSNDITLFGRPRGSGESIWQIKQRIGIVSSALHLQYRVSCSVLDVLLSGFFDSIGLYQKPTKPQLDLAKEWLAILHMTGLASTSFKKLDYGQQRLLLIGRALIKQPLLLILDEPYQGLDFINRTLVMRALKMIAEHHLSQLLYVSHHREDALPAIHHFVDFIKQGDGYSVQVSDSESKD | not soluble |
